In PMC11770034, “Characterization of the oxygen-tolerant formate dehydrogenase from Clostridium carboxidivorans” (Frontiers in Microbiology, 2025):

System: T1, NC(=O)C1=CN([C@@H]2O[C@H](COP(=O)(O)OP(=O)(O)OC[C@H]3O[C@@H](n4cnc5c(N)ncnc54)[C@H](O)[C@@H]3O)[C@@H](O)[C@H]2O)C=CC1
T1 construct: Mo form
Test: purified protein
Assay type: biochemical, Clostridium carboxidivorans
Settings: 100 mM sodium bicarbonate, 50 mM Bis-Tris pH 6.8, 30 °C, oxic, Mo-loaded enzyme, part of preparation may be inactive

Substance: ccFDH (Mo-ccFDH) (Clostridium carboxidivorans P7; U139C)
- Km: 60 ± 7 µM
- Vmax: 5.83 µmol/min
- kcat: 0.02 ± 0.0008 s⁻¹
- kcat/Km: 310 ± 84 M⁻¹ s⁻¹
